# Assay type: physicochemical
# Protocol: FIG. 2. Biophysical characterization of designed minimal proteins. (A) Design models and NMR solution ensembles for designed minimal proteins. (B) Far-ultraviolet circular dichroism (CD) spectra at 25° C. (black), 95° C. (red), and 25° C. following melting (blue). (C) Thermal melting curves measured by CD at 220 nm. Melting temperatures determined using the derivative of the curve. (D) Chemical denaturation in GuHCl measured by CD at 220 nm and 25° C. Unfolding free energies determined by fitting to a two-state model (red solid line).
# Far-ultraviolet CD measurements were carried out with an AVIV spectrometer, model 420. Wavelength scans were measured from 260 to 195 nm at 25 and 95° C. Temperature melts monitored dichroism signal at 220 nm in steps of 2° C./minute with 30 s of equilibration time. […] The GuHCl concentration was determined by refractive index in PBS buffer. The denaturation process monitored dichroism signal at 220 nm in steps of 0.2 M GdmCl with 1 minute mixing time for each step, at 25° C. Protein concentrations were determined by absorbance at 280 nm measured using a NanoDrop™ spectrophotometer (Thermo Scientific) using predicted extinction coefficients (65). Protein concentrations for designs lacking aromatic amino acids were measured by Qubit™ protein assay (ThermoFisher Scientific). […]
sequence,measurement,value
TTVKGDIKVTFDNPEKAKKYAQKLAKIYQLTVHVHGDTIHVK [EEHEE_rd3_1049],"stability of purified design (CD, in words)",very stable
